The results in this text go back to patent US20050123900A1.

Holding throughout (assay): cell-based or functional assay
Assay [1] addresses HIV-1 Env NL4-3 on 293 cells (HIV-1 isolate NL4-3).
In assay [2] the target is HIV-1 Env UG975.10 on 293 cells (HIV-1 isolate UG975.10).
The target of assay [3] is HIV-1 Env 89.6 on 293 cells (HIV-1 isolate 89.6) (UniProt Q73372).
Assay [4] concerns the target HIV-1 Env UG037.8 on 293 cells (HIV-1 isolate UG037.8).
The target in assay [5] is HIV-1 Env BR025.9 on 293 cells (HIV-1 isolate BR025.9).
The target of assay [6] is HIV-1 Env TH022.4 on 293 cells (HIV-1 isolate TH022.4).
Assay [7] concerns the target HIV-1 Env US005.11 on 293 cells (HIV-1 isolate US005.11).
For assay [8], the target named is HIV-1 Env US715.6 on 293 cells (HIV-1 isolate US715.6).
The target in assay [9] is HIV-1 Env BR029.2 on 293 cells (HIV-1 isolate BR029.2).
Assay [10] deals with HIV-1 Env RW020.5 on 293 cells (HIV-1 isolate RW020.5).
In assay [11] the target is HIV-1 Env HT593.1 on 293 cells (HIV-1 isolate HT593.1).

For Fab X5, the % of fusion inhibition (syncytia count), Fab at 50 µg/ml in assay [1] is 83%; in assay [2] it was 19%; in assay [3], 93%; in assay [4] it was 34%; in [5] it was 71%; in [6] it was 43%. Also, the % of fusion inhibition (syncytia count), Fab at 50 µg/ml was 72% in assay [7]; 28% in assay [8]; 36% in assay [9]; 45% in [10]; 27% in assay [11].
